According to publication PMC8442553 (Science (New York, N.Y.), 2019):

Legend:
Experiment in all cases: cryo-EM structure
[1] = biological target: T1, Rsc30 (yeast, UniProt P38781 1-883)
T1 sequence: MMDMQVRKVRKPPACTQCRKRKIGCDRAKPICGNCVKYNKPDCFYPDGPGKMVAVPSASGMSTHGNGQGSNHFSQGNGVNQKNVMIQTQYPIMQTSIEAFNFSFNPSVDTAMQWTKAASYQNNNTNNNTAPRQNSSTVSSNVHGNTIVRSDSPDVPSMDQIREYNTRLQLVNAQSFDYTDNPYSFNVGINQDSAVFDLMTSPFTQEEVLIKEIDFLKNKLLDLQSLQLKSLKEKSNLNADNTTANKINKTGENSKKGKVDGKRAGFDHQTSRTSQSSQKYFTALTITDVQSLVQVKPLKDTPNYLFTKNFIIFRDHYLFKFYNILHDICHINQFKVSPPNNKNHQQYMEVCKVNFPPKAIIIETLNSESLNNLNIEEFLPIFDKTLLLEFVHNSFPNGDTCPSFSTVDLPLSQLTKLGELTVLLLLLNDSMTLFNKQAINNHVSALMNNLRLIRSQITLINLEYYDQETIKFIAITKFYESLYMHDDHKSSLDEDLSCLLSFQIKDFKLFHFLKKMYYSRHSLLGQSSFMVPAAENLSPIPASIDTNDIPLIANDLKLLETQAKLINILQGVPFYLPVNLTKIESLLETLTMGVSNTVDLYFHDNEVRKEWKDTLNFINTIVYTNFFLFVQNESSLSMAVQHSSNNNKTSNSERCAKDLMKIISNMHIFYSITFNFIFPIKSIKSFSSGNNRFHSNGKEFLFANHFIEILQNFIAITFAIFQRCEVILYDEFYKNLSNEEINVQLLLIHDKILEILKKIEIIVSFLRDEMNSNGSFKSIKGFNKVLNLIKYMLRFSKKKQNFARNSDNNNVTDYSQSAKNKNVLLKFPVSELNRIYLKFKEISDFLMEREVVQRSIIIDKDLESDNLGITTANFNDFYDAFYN

[2] = biological target: T2, Sth1 (yeast, UniProt P32597 1-1359)
T2 sequence: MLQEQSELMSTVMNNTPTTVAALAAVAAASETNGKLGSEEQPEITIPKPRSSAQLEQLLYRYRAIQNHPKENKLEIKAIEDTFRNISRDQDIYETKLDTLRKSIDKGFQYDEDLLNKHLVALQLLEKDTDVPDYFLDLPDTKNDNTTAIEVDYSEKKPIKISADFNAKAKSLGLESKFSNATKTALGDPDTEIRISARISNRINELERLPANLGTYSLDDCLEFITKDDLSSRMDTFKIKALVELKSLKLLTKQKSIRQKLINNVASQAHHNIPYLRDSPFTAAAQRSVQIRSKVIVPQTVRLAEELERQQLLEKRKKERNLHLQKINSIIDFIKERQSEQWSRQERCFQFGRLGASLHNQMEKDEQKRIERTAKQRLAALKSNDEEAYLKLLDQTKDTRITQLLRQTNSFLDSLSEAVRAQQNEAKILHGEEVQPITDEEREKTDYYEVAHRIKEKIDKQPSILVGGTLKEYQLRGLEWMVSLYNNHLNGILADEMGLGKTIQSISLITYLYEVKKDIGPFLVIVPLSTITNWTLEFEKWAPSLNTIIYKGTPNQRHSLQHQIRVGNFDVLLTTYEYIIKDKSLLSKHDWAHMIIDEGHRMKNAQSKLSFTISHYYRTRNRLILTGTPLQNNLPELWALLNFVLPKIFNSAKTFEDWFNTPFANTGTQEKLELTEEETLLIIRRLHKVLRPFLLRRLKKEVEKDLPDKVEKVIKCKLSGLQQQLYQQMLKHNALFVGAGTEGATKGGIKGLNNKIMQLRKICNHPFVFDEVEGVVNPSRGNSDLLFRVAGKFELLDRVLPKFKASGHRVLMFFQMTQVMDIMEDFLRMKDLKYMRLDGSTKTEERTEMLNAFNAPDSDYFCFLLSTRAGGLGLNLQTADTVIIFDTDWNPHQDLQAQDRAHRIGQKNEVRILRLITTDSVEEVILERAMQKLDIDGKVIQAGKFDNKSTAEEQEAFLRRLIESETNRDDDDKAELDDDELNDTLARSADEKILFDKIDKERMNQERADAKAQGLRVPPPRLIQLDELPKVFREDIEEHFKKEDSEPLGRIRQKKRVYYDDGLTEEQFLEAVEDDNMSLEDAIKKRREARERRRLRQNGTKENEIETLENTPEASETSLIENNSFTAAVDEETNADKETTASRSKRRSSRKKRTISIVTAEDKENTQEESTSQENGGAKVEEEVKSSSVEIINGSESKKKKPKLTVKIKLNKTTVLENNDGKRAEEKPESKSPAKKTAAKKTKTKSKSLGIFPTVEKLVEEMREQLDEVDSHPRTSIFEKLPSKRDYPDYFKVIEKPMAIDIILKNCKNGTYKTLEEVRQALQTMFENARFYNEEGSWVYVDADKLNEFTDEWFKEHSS

[3] = biological target: T3, Rsc3 (yeast, UniProt Q06639 1-885)
T3 sequence: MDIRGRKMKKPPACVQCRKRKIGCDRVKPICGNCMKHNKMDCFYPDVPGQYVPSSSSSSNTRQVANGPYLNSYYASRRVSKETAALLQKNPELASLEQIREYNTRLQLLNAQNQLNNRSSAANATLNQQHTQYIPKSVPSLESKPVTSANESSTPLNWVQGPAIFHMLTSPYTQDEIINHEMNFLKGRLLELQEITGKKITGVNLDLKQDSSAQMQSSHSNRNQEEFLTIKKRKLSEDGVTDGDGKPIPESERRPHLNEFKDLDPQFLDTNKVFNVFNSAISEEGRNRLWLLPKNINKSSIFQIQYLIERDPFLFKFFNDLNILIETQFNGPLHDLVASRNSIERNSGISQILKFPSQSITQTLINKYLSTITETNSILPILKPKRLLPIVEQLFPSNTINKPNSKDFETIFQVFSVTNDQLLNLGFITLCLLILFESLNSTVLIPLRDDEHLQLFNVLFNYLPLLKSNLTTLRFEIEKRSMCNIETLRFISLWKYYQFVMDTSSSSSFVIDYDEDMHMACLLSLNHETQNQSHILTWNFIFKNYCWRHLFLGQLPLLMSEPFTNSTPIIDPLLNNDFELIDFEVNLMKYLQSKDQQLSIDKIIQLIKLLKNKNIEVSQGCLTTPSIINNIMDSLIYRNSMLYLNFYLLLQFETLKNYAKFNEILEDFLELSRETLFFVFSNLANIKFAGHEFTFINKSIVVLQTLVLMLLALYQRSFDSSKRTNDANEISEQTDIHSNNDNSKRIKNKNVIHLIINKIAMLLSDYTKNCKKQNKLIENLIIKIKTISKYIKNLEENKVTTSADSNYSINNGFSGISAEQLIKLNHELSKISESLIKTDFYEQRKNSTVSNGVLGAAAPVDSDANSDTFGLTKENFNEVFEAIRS

binding result [1]: binds
binding result [2]: binds
binding result [3]: binds
B1: Rsc9 (natural protein, yeast)
chain: MNSLASNTPLNGTPVSEAPATSSEPVNMFETMVANPIKVSRLQSNGVLTGPAANTKSIHYSLANFNVFQSLPKETARGVDDLTRMEMALLSGIPEEIKWSLKKYLTYSNKAPYMISLRTLPDLLPLFKTFILPLERIVEGLNKSSICDSKAMDSLQMGLNALLILRNLAQDTDSVQILVKDREIKSFILFILKKFQCVATGDNKWQLYEGNATFFNELTHYTLDLMEAISSYIAPAMKDDHYFQTLVSILNYTKDRYMVISILRSLSRLLVRSKANEESAADNLDHKTLSLIVSFLLLECDSELIIASLDFLYQYILPGSQRITELFKSKECSLILEATLPNLLSYNIATPDYHLLQKHKIRLIKRLKPPAPKEPPNLSEDLFQQLFKLNEPLRSTAWLRCCFEPVQEAEFTQISLWRSYESKFGQPVRESGRKLLPAVEFIKNVSNAFNNAAAIVITDPVTGKKRFVIKGIQPRFKALGIADGERESQVPISALKSKFLNDSKEITPARQNSIPEVKFPQELSDVSKVACTFLCLLSNDTDDGAGSAFCQRIRPLVLHKLADIPPLTLALSEYMENTSGL
